Measured values as given in the nanobody polyreactivity screen of Harvey et al. (2022).

experiment: yeast display, Sf9 membrane polyspecificity reagent, FACS + sequencing; frameworks hold sequencing errors
Method in brief: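 Sorting gates, low and high (top ~1%), were placed on anti-HA fluorescence to track expression and on streptavidin fluorescence to track reagent binding. A clone's polyreactivity label is taken from the gate it came out of. The reagent was 10% biotinylated, detergent-solubilized Sf9 membrane, applied for 1 hour at 4 °C to galactose-induced yeast display cells.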

| Sequence | polyreactivity (PSR sort gate) |
| --- | --- |
| QVQLVESGGGLVQAGGSLRLSCAASGGIFAPYAMGWYRQAPGKERELVADITSEGGSTYYADSVKGRFTISRDIEKNTVYLQMNSLKPEDTAVYYCAAEQRYCWWGHPGDYWGKGTQVTVSS | low polyreactivity |
| QVQLVESGGGLVQAGGSLRLSCAASGGIFAVYAMGWYRQAPGKERELVAAITWRGGSTRYADSVKGRFTISRDNAKNTVHLQMNSLIPEDTAVYYCAVRSTGYPSRYYYWGQGTQVTVSS | high polyreactivity |
| QVQLVESGGGLVQAGGSLRLSCAASGGIFDRYAMGWYRQAPGKERELVAAITSGGSTNYADSVKGRFTISRDNAKNTVYLQMNSLKPEDTAVYYCNADLGILSGVAEGPTFREYDYWGQGTQVTVSS | low polyreactivity |
| QVQLVESGGGLVQAGGSLRLSCAASGGIFDSYAMGWYRQAPGKERELVADITWSGGSTYYADSVKGSFTISRDNAKNTVYLQMNSLKPEDTAVYLCAAVWNSPYDYWGQGTLVTVSS | low polyreactivity |
| QVQLVESGGGLVQAGGSLRLSCAASGGIFDTNAMGWSRQAPGKERELVAAIRGSGGTYYADSVKGRFTISRDNAKNTVYLQMNSLKPEDTAVYYCATRTYRVLAGSAWYHYNYWGQGTQVTVSS | high polyreactivity |
| QVQLVESGGGLVQAGGSLRLSCAASGGIFDTYAMGWYRQEPGKERELVAAISRRGGNTYYADSVKGRFTISRDNAKNTVYLQMNSLKPEDTAVYYCAAYYHGRMDYWGQGTQVTVSS | high polyreactivity |
| QVQLVESGGGLVQAGGSLRLSCAASGGIFEAYVMGWYRHAPGKERELVAAISFRGGSTYYADSVKGRFTISRDNAKNTVYLQMNSLKPEDTAVYYCAADYRHQGYDYWGQGTQVTVSS | low polyreactivity |
| QVQLVESGGGLVQAGGSLRLSCAASGGIFFLYAMGWYRQAPGKETELVAAIRQDGGSTYYADSVKGRFTISRDNAKNTVYLQMNSLKPEDTAVYYCNAGYVKTGLEYYYWGQGPQVTVSS | low polyreactivity |
| QVQLVESGGGLVQAGGSLRLSCAASGGIFFSYAMGWYRQAPGKERELVAAIRTNGGTTYYADSVKGRFTISRDNAKNTVYLQMNSLKPEDTAVYYCAALPGGYYDRGEYDYWGQGTQVTVSS | low polyreactivity |
| QVQLVESGGGLVQAGGSLRLSCAASGGIFGINAMGWYRQAPGKEREFVAAITASGGTTYYADSVKGRFTISRDNAKNTVYLQMNSLKPEDTAVYYCAKRYRSYDYVWYEYWGQGTQVTVSS | high polyreactivity |
| QVQLVESGGGLVQAGGSLRLSCAASGGIFGRNAMGWYRQAPGKERELVASISKSGGSTYYADSVKGRFTISRDNAKNTVYLQMKSLKPEDSAVYYCAARYSYFNWDNYYWGQGTLVTVSS | high polyreactivity |
| QVQLVESGGGLVQAGGSLRLSCAASGGIFGRYAMGWYRQAPGKERELVAGISYSGGSTYYADSVKGRFTISRDNAKNSVYLQMNSLKPEDTAVYYCATGGYVWYRSVNVWTRMDYWGQGTQVTVSS | high polyreactivity |
| QVQLVESGGGLVQAGGSLRLSCAASGGIFGRYAMGWYRQAPGKERELVAGLSYSGGSTYYADSVKGRFTISRDNEKNTVYLQMTSLKAEDTAVYYCAADTRRTYENYYWGQGTQVTVSS | high polyreactivity |
| QVQLVESGGGLVQAGGSLRLSCAASGGIFGTYTMGWYRQAPGKERELVAAIRSSSGRTYYADSVKGRFTISRDTAKNTVYLQMNSLKPEDTAVYYCNRAYTIQDDYWGQGTQVTVSS | high polyreactivity |
| QVQLVESGGGLVQAGGSLRLSCAASGGIFGVYAMGWYRQAPGKERELVAAISQSDTSTYYADSVKGRFTISRDNAKNTVYLQMNSLKPEDTAVYYCAAEYYLDYYTWFDYWGQGTQVTVSS | high polyreactivity |
| QVQLVESGGGLVQAGGSLRLSCAASGGIFGWYAMGWYRQAPGKERELVAAITGGGSTYYADSVKGRFTISRDNAKNTVYLQMNSLKPEDTAVYYCNADYHTEEDYWGHGTQVTVSS | low polyreactivity |
| QVQLVESGGGLVQAGGSLRLSCAASGGIFGYYAMAWYRQAPGKEREFVAAITLSGGRSYYADSVKGRFTISRDNAKNTVYLQMNSLKPEDTAVYYCNAYPYYLVRNMDSWGQGTQVTVTS | high polyreactivity |
